According to IntAct's records for PubMed 31515488:

B1: Oxidative stress-induced growth inhibitor 1 (Homo sapiens), Q9UJX0 (parent)
chain: MSSSRKDHLGASSSEPLPVIIVGNGPSGICLSYLLSGYTPYTKPDAIHPHPLLQRKLTEAPGVSILDQDLDYLSEGLEGRSQSPVALLFDALLRPDTDFGGNMKSVLTWKHRKEHAIPHVVLGRNLPGGAWHSIEGSMVILSQGQWMGLPDLEVKDWMQKKRRGLRNSRATAGDIAHYYRDYVVKKGLGHNFVSGAVVTAVEWGTPDPSSCGAQDSSPLFQVSGFLTRNQAQQPFSLWARNVVLATGTFDSPARLGIPGEALPFIHHELSALEAATRVGAVTPASDPVLIIGAGLSAADAVLYARHYNIPVIHAFRRAVDDPGLVFNQLPKMLYPEYHKVHQMMREQSILSPSPYEGYRSLPRHQLLCFKEDCQAVFQDLEGVEKVFGVSLVLVLIGSHPDLSFLPGAGADFAVDPDQPLSAKRNPIDVDPFTYQSTRQEGLYAMGPLAGDNFVRFVQGGALAVASSLLRKETRKPP
partner: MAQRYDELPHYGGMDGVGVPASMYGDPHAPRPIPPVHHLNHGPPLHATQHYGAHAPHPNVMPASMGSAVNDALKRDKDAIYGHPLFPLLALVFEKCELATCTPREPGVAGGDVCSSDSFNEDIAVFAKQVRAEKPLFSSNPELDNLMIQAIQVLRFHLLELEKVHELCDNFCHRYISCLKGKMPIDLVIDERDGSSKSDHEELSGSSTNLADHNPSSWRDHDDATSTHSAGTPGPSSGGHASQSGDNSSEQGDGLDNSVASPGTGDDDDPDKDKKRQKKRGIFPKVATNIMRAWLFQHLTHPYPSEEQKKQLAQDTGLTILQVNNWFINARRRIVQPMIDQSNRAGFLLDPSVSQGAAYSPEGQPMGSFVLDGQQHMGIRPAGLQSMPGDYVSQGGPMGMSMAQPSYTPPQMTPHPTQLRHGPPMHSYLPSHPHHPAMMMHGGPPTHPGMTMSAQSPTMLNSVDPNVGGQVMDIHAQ
B2: Tuftelin-interacting protein 11 (Homo sapiens), Q9UBB9 (parent)
chain: MSLSHLYRDGEGRIDDDDDERENFEITDWDLQNEFNPNRQRHWQTKEEATYGVWAERDSDDERPSFGGKRARDYSAPVNFISAGLKKGAAEEAELEDSDDEEKPVKQDDFPKDFGPRKLKTGGNFKPSQKGFAGGTKSFMDFGSWERHTKGIGQKLLQKMGYVPGRGLGKNAQGIINPIEAKQRKGKGAVGAYGSERTTQSMQDFPVVDSEEEAEEEFQKELSQWRKDPSGSKKKPKYSYKTVEELKAKGRISKKLTAPQKELSQVKVIDMTGREQKVYYSYSQISHKHNVPDDGLPLQSQQLPQSGKEAKAPGFALPELEHNLQLLIDLTEQEIIQNDRQLQYERDMVVNLFHELEKMTEVLDHEERVISNLSKVLEMVEECERRMQPDCSNPLTLDECARIFETLQDKYYEEYRMSDRVDLAVAIVYPLMKEYFKEWDPLKDCTYGTEIISKWKSLLENDQLLSHGGQDLSADAFHRLIWEVWMPFVRNIVTQWQPRNCDPMVDFLDSWVHIIPVWILDNILDQLIFPKLQKEVENWNPLTDTVPIHSWIHPWLPLMQARLEPLYSPIRSKLSSALQKWHPSDSSAKLILQPWKDVFTPGSWEAFMVKNIVPKLGMCLGELVINPHQQHMDAFYWVIDWEGMISVSSLVGLLEKHFFPKWLQVLCSWLSNSPNYEEITKWYLGWKSMFSDQVLAHPSVKDKFNEALDIMNRAVSSNVGAYMQPGARENIAYLTHTERRKDFQYEAMQERREAENMAQRGIGVAASSVPMNFKDLIETKAEEHNIVFMPVIGKRHEGKQLYTFGRIVIYIDRGVVFVQGEKTWVPTSLQSLIDMAK
partner: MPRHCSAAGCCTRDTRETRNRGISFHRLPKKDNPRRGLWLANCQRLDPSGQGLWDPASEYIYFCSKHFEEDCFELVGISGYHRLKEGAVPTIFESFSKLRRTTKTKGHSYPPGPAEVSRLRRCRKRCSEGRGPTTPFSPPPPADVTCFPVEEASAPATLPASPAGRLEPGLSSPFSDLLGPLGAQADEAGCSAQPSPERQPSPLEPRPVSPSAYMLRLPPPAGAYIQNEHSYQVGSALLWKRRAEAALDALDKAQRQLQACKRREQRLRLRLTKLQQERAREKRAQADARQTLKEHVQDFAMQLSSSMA
B3: Leucine-rich repeat-containing protein 45 (Homo sapiens), Q96CN5 (parent)
chain: MEEFRRSYSRLCRESGAEPQEAVLQQLHQLPRGRLDLATQSLTVETCRALGKLLPRETLCTELVLSDCMLSEEGATLLLRGLCANTVLRFLDLKGNNLRAAGAEALGKLLQQNKSIQSLTLEWNSLGTWDDAFATFCGGLAANGALQRLDLRNNQISHKGAEELALALKGNTTLQQLDLRWNNVGLLGGRALMNCLPSNRTLWRLDLAGNNIPGDVLRAVEQAMGHSQDRLTTFQENQARTHVLSKEVQHLREEKSKQFLDLMETIDKQREEMAKSSRASAARVGQLQEALNERHSIINALKAKLQMTEAALALSEQKAQDLGELLATAEQEQLSLSQRQAKELKLEQQEAAERESKLLRDLSAANEKNLLLQNQVDELERKFRCQQEQLFQTRQEMTSMSAELKMRAIQAEERLDMEKRRCRQSLEDSESLRIKEVEHMTRHLEESEKAMQERVQRLEAARLSLEEELSRVKAAALSERGQAEEELIKAKSQARLEEQQRLAHLEDKLRLLAQARDEAQGACLQQKQVVAEAQTRVSQLGLQVEGLRRRLEELQQELSLKDQERVAEVSRVRVELQEQNGRLQAELAAQEALREKAAALERQLKVMASDHREALLDRESENASLREKLRLREAEIARIRDEEAQRASFLQNAVLAYVQASPVRTLSPPK
partner: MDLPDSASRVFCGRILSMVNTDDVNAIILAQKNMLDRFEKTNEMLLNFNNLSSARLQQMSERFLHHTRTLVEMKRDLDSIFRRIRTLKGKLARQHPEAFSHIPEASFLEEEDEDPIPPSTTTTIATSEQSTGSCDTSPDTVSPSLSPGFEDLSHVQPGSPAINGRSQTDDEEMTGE
B4: Serine/threonine-protein kinase PAK 5 (Homo sapiens), Q9P286 (parent)
chain: MFGKKKKKIEISGPSNFEHRVHTGFDPQEQKFTGLPQQWHSLLADTANRPKPMVDPSCITPIQLAPMKTIVRGNKPCKETSINGLLEDFDNISVTRSNSLRKESPPTPDQGASSHGPGHAEENGFITFSQYSSESDTTADYTTEKYREKSLYGDDLDPYYRGSHAAKQNGHVMKMKHGEAYYSEVKPLKSDFARFSADYHSHLDSLSKPSEYSDLKWEYQRASSSSPLDYSFQFTPSRTAGTSGCSKESLAYSESEWGPSLDDYDRRPKSSYLNQTSPQPTMRQRSRSGSGLQEPMMPFGASAFKTHPQGHSYNSYTYPRLSEPTMCIPKVDYDRAQMVLSPPLSGSDTYPRGPAKLPQSQSKSGYSSSSHQYPSGYHKATLYHHPSLQSSSQYISTASYLSSLSLSSSTYPPPSWGSSSDQQPSRVSHEQFRAALQLVVSPGDPREYLANFIKIGEGSTGIVCIATEKHTGKQVAVKKMDLRKQQRRELLFNEVVIMRDYHHDNVVDMYSSYLVGDELWVVMEFLEGGALTDIVTHTRMNEEQIATVCLSVLRALSYLHNQGVIHRDIKSDSILLTSDGRIKLSDFGFCAQVSKEVPKRKSLVGTPYWMAPEVISRLPYGTEVDIWSLGIMVIEMIDGEPPYFNEPPLQAMRRIRDSLPPRVKDLHKVSSVLRGFLDLMLVREPSQRATAQELLGHPFLKLAGPPSCIVPLMRQYRHH

Variants of: B1
Conditions: with meis2_human MEIS2, O14770
MSSSRKDHLGASSSEPLPVIIVGNGPSGICLSYLLSGYTPYTKPDAIHPHPLLQRKLTEAPGVSILDQDLDYLSEGLEGRSQSPVALLFDALLRPDTDFGGNMKSVLTWKHRKEHAIPHVVLGRNLPGGAWHSIEGSMVILSQGQWMGLPDLEVKDWMQKKRRGLRNSRATAGDIAHYYRDYVVKKGLGHNFVSGAVVTAVEWGTPDPSSCGAQDSSPLFQVSGFLTRNQAQQPFSLWARNVVLATGTFDSPARLGIPGEALPFIHHELSALEAATRVGAVTPASDPVLIIGAGLSAADAVLYARHYNIPVIHAFRRAVNDPGLVFNQLPKMLYPEYHKVHQMMREQSILSPSPYEGYRSLPRHQLLCFKEDCQAVFQDLEGVEKVFGVSLVLVLIGSHPDLSFLPGAGADFAVDPDQPLSAKRNPIDVDPFTYQSTRQEGLYAMGPLAGDNFVRFVQGGALAVASSLLRKETRKPP [D320N] was tested, and the “effect of a mutation on the interaction” value was “with no effect”.

Variants of: B2
Conditions: with thap7_human THAP7, Q9BT49
S688L was tested, and the “effect of a mutation on the interaction” value was “with no effect”. R8Q was tested, and the “effect of a mutation on the interaction” value was “with no effect”.

Variants of: B3
Conditions: with kxdl1_human KXD1, Q9BQD3
R480H was tested, and the “effect of a mutation on the interaction” value was “with no effect”. For A365V, the “effect of a mutation on the interaction” value was “with no effect”.

Variants of: B4
Conditions: with uxt_human UXT
With S511N the “effect of a mutation on the interaction” value was “with no effect”.

Variants of: B4
Conditions: with fhl3_human FHL3, Q13643
Chain of fhl3_human FHL3, Q13643 (Q13643 whole entry): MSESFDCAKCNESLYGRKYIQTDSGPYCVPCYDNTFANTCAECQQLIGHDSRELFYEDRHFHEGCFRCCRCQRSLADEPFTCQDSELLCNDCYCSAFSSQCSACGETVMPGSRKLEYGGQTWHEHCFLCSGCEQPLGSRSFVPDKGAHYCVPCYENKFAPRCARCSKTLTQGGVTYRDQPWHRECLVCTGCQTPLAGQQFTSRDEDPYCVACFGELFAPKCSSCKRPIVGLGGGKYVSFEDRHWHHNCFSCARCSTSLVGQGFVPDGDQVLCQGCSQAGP
In the case of S511N, the “effect of a mutation on the interaction” value is reported as “with no effect”.

Variants of: B4
Conditions: with pdli7_human PDLIM7, Q9NR12
Chain of pdli7_human PDLIM7, Q9NR12 (Q9NR12 whole entry): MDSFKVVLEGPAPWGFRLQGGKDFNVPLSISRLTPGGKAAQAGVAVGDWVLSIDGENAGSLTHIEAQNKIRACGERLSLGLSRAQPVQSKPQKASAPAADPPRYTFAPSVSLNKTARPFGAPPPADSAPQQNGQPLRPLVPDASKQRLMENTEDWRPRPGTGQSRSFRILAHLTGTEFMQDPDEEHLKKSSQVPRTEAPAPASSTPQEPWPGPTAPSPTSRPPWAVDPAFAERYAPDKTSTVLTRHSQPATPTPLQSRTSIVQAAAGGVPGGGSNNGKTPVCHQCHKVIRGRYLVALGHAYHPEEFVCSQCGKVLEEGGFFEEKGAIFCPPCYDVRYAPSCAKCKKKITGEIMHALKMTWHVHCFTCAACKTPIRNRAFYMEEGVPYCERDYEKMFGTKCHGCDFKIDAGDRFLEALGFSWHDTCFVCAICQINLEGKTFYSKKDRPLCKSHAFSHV
In the case of S511N, the “effect of a mutation on the interaction” value is reported as “with no effect”.
